Tests used:
CC(=O)C(=O)O = assay: OHB/pyruvate reductase assay, Oc-LdhA; format: biochemical, Oryctalagus cuniculus; details: other: pH 7, 37° C., 0.25 mM NADH
Description: (§1) The genes coding for (L)-malate dehydrogenase in Escherichia coli, Ec-mdh (SEQ ID NO: 1), (D)-lactate dehydrogenase in E. coli, Ec-ldhA (SEQ ID NO: 3), (L)-lactate dehydrogenase of Lactococcus lactis, Ll-ldhA (SEQ ID NO: 5), (L)-lactate dehydrogenase of Bacillus subtilis, Bs-ldh (SEQ ID NO: 7), (L)-lactate dehydrogenase of Geobacillus stearothermophilus, Gs-ldh (SEQ ID NO: 9), the two isoforms of the (L)-lactate dehydrogenase of Oryctalagus cuniculus, Oc-ldhA (SEQ ID NO: 11 and SEQ ID NO: 13), were amplified by PCR using the high-fidelity polymerase Phusion™ (Fermentas) and the primers listed in Table 1. Genomic DNAs of E. coli MG1655, L. lactis IL1403, and B. subtilis strain 168 were used as the template. The genes Oc-ldhA, and Gs-ldh were codon-optimized for expression in E. coli and synthesized by MWG Eurofins. The primers introduced restriction sites (Table 1) upstream of the start codon and downstream of the stop codon, respectively, facilitating the ligation of the digested PCR products into the corresponding sites of the pET28a+ (Novagen) expression vector using T4 DNA ligase (Fermentas). Ligation products were transformed into E. coli DH5a cells (NEB). […]

O=C(O)C(=O)CCO = assay: OHB/pyruvate reductase assay, Oc-LdhA; format: biochemical, Oryctalagus cuniculus; details: other: pH 7, 37° C., 0.25 mM NADH
Description: as §1

Question: What does the source list for “Oryctolagus cuniculus (printed: Oryctalagus cuniculus) (L)-lactate dehydrogenase Oc-LdhA, SEQ ID NO: 12 and SEQ ID NO: 14 (two isoforms) (Oryctolagus cuniculus)”?
Answer: Km (CC(=O)C(=O)O): 1.5 mM; Km (O=C(O)C(=O)CCO): 13 mM

— patent US11505811B2, “Method for the preparation of 2,4-dihydroxybutyrate” (ADISSEO FRANCE S.A.S., priority 2012, dated 2022)
